Experimental data published in paper PMC3737524, “The role of the C-terminal helix of U1A protein in the interaction with U1hpII RNA”.

Columns and labels:
Conditions in all cases: protein: recombinant; tags: N-terminal His6; label: 5' biotin; hairpin
[1] = target: U1A Asp92Glu (UniProt P09012 1-101, D92E); experiment: SPR; ka 4e7 M-1s-1; kd 9e-4 s-1; Biacore 2000 SPR; running buffer with 125 ug/ml yeast tRNA and 62.5 ug/ml acetylated BSA; buffer, salt, pH and temperature as previously described (not given in material)
[2] = target: U1A90 (UniProt P09012 1-90); experiment: SPR; ka 2.3e8 M-1s-1; kd 1.0 s-1; Biacore 2000 SPR; running buffer with 125 ug/ml yeast tRNA and 62.5 ug/ml acetylated BSA; buffer, salt, pH and temperature as previously described (not given in material)
[3] = target: U1A Thr11Ala (UniProt P09012 1-101, T11A); experiment: SPR; ka 7.1e7 M-1s-1; kd 1.5e-2 s-1; Biacore 2000 SPR; running buffer with 125 ug/ml yeast tRNA and 62.5 ug/ml acetylated BSA; buffer, salt, pH and temperature as previously described (not given in material)
[4] = target: U1A Ile94Pro (UniProt P09012 1-101, I94P); experiment: SPR; ka 1.2e8 M-1s-1; kd 6e-2 s-1; Biacore 2000 SPR; running buffer with 125 ug/ml yeast tRNA and 62.5 ug/ml acetylated BSA; buffer, salt, pH and temperature as previously described (not given in material)
[5] = target: U1A95 (UniProt P09012 1-95); experiment: SPR; ka 2.3e7 M-1s-1; kd 1.8e-2 s-1; Biacore 2000 SPR; running buffer with 125 ug/ml yeast tRNA and 62.5 ug/ml acetylated BSA; buffer, salt, pH and temperature as previously described (not given in material)
[6] = target: U1A Asp92Phe (UniProt P09012 1-101, D92F); experiment: SPR; ka 6e7 M-1s-1; kd 1.0e-3 s-1; Biacore 2000 SPR; running buffer with 125 ug/ml yeast tRNA and 62.5 ug/ml acetylated BSA; buffer, salt, pH and temperature as previously described (not given in material)
[7] = target: U1A Asp92Ala (UniProt P09012 1-101, D92A); experiment: SPR; ka 3.3e7 M-1s-1; kd 1.1e-3 s-1; Biacore 2000 SPR; running buffer with 125 ug/ml yeast tRNA and 62.5 ug/ml acetylated BSA; buffer, salt, pH and temperature as previously described (not given in material)
Sequence of U1A Asp92Ala (P09012 1-101 D92A): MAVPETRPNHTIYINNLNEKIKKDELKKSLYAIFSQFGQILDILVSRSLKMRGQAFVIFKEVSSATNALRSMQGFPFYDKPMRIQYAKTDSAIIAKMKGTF

Sequence of U1A Ile94Pro (P09012 1-101 I94P): as the sequence (P09012 1-101 D92A) above, with A92D, I94P counted along it
Sequence of U1A90 (P09012 1-90): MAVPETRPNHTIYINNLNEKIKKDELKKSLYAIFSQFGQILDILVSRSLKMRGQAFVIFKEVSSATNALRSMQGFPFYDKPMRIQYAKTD
Sequence of U1A Asp92Phe (P09012 1-101 D92F): as the sequence (P09012 1-101 D92A) above, with A92F counted along it
Sequence of U1A Asp92Glu (P09012 1-101 D92E): as the sequence (P09012 1-101 D92A) above, with A92E counted along it
Sequence of U1A Thr11Ala (P09012 1-101 T11A): as the sequence (P09012 1-101 D92A) above, with T11A, A92D counted along it
Sequence of U1A95 (P09012 1-95): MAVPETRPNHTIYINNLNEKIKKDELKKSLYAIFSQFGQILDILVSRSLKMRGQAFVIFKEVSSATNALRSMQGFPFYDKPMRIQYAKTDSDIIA

AGCUUAUCCAUUGCACUCCGGAUGAGCU (structured_RNA) [U1hpII]
Kd [1]: 0.02 nM | Kd [2]: 4.5 nM | Kd [3]: 0.21 nM | Kd [4]: 0.5 nM | Kd [5]: 0.82 nM | Kd [6]: 0.02 nM | Kd [7]: 0.041 nM
